Experimental data as given in paper PMC10192343, “Structural and functional analyses of the echinomycin resistance conferring protein Ecm16 from Streptomyces lasalocidi” (Scientific Reports, 2023).
Marks after values point to notes of the source that are not given here.

What was measured:
UvrA = target: T1, UvrA (Thermotoga maritima, UniProt Q9WYV0); test: ATPase, EnzChek phosphate assay (MESG/PNP, […] nm); assay type: biochemical; details: 1 µM echinomycin-DNA or DNA, 50 mM HEPES pH 7.5, 50 mM NaCl, 10 mM MgCl2, 22 °C
T1 construct: pET28a(+) construct, E. coli Rosetta (DE3) pLysS, His-Trap purified, no tag cleavage mentioned
T1 sequence (Q9WYV0 1-916): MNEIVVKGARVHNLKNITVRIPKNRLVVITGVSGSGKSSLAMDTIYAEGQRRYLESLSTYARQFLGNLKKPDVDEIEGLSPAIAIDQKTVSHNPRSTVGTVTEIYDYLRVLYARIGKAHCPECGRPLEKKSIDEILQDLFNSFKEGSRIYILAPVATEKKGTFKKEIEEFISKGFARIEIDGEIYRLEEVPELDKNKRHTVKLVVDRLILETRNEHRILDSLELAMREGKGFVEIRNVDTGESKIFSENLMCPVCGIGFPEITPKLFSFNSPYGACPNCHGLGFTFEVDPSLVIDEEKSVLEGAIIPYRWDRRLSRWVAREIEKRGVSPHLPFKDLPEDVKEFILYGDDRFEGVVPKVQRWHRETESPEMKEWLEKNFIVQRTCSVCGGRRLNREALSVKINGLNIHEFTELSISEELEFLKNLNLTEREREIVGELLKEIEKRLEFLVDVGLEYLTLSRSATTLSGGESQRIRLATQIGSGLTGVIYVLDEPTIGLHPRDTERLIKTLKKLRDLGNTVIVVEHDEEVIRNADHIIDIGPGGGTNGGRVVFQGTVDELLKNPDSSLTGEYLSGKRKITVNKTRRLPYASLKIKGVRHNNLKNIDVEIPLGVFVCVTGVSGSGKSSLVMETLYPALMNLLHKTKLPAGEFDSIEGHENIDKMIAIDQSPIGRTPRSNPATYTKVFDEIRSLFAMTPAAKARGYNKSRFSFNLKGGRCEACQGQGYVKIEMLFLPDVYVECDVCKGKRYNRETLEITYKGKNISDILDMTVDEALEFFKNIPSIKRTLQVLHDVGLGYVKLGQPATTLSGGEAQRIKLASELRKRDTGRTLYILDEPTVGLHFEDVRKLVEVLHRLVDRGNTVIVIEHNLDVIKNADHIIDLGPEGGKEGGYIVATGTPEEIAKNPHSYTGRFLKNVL

Ecm16 [1] = target: Ecm16 (Streptomyces lasalocidi, UniProt Q0X0A9); details: 1 µM echinomycin-DNA or DNA, 50 mM HEPES pH 7.5, 50 mM NaCl, 10 mM MgCl2, 22 °C
[2] = target: Ecm16* (Streptomyces lasalocidi (insertion domain from Streptomyces peucetius DrrC)) (UniProt Q0X0A9); test: fluorescence polarization; details: apparent KD, Hill fit, FP: 50 mM HEPES pH 7.5, 50 mM NaCl, 50 nM DNA, 4-512 nM protein, temperature not stated, EMSA: same buffer plus 0.1 mg/ml BSA
Ecm16 [3] = target: T2, Ecm16 (Streptomyces lasalocidi, UniProt Q0X0A9 1-792); test: fluorescence polarization; no echinomycin; apparent KD, Hill fit; FP: 50 mM HEPES pH 7.5, 50 mM NaCl, 50 nM DNA, 4-512 nM protein, temperature not stated; EMSA: same buffer plus 0.1 mg/ml BSA, 50 nM DNA, echinomycin:DNA 1.1:1, 15 min at room temperature, 6% native gel at 4 °C; details: protein: recombinant; tags: His (pET28a, Ni-NTA); chain copies: 2; label: 5'-FAM on both strands; blunt; self-complementary
T2 sequence: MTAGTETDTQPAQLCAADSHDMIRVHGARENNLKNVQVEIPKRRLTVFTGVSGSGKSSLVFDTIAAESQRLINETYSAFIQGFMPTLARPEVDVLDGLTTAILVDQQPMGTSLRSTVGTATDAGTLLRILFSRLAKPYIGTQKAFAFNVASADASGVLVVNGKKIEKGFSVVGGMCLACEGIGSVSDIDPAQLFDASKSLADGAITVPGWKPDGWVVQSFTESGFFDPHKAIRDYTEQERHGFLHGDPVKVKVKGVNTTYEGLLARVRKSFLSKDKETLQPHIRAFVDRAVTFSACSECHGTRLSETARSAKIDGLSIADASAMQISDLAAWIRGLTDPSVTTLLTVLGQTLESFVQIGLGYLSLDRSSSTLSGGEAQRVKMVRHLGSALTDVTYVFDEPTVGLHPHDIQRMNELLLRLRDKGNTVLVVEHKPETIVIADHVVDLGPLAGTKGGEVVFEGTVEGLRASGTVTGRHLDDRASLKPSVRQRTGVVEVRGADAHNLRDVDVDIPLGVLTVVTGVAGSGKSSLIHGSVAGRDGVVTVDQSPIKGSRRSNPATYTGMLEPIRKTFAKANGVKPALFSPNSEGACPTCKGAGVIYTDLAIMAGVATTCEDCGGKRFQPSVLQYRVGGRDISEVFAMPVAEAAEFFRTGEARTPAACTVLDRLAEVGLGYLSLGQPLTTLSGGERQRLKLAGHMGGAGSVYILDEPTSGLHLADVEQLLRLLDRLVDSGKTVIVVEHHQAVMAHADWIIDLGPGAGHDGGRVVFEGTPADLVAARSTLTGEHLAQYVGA

Ecm16 [4] = target: T2, Ecm16; test: fluorescence polarization; echinomycin-bound DNA; apparent KD, Hill fit; FP: 50 mM HEPES pH 7.5, 50 mM NaCl, 50 nM DNA, 4-512 nM protein, temperature not stated; EMSA: same buffer plus 0.1 mg/ml BSA, 50 nM DNA, echinomycin:DNA 1.1:1, 15 min at room temperature, 6% native gel at 4 °C; details: protein: recombinant; tags: His (pET28a, Ni-NTA); chain copies: 2; label: 5'-FAM on both strands; blunt; self-complementary
[5] = target: the molecule itself; test: crystal structure; hanging drop vapour diffusion at 18 °C; 8 mg/ml Ecm16, 10 mM MgCl2, 1 mM ADP mixed with 0.1 M MES pH 6.5, 0.2 M sodium thiocyanate, 12% PEG 20K; 2.0 Å; homodimer in the model

Molecule: Nc1ncnc2c1ncn2[C@@H]1O[C@H](COP(=O)(O)OP(=O)(O)OP(=O)(O)O)[C@@H](O)[C@H]1O [ATP]
- ATPase, EnzChek phosphate assay (MESG/PNP, 360 nm) (UvrA): Ecm16* and UvrA showed a similar basal ATPase activity for all four DNA substrates
- ATPase, EnzChek phosphate assay (MESG/PNP, 360 nm) (Ecm16 [1]): we measured the ATP hydrolysis activity of Ecm16, Ecm16-ΔID, Ecm16*, and UvrA

Molecule: AGTGATCAGTGGTTACGTAACCACTGATCACT (double strand) [FAM 32-bp DNA]
- Kd ([2]; echinomycin-bound DNA): 37.7 nM
- Kd ([2]; no echinomycin): 90.8 nM

B1: FAM 32-bp DNA (dsDNA)
DNA 1: AGTGATCAGTGGTTACGTAACCACTGATCACT
DNA 2: AGTGATCAGTGGTTACGTAACCACTGATCACT
- Kd (Ecm16 [3]): 60.2 ± 2.1 nM
- Kd (Ecm16 [4]): 11.8 ± 1.7 nM

B2: Ecm16 from Streptomyces lasalocidi (natural protein)
chain: MTAGTETDTQPAQLCAADSHDMIRVHGARENNLKNVQVEIPKRRLTVFTGVSGSGKSSLVFDTIAAESQRLINETYSAFIQGFMPTLARPEVDVLDGLTTAILVDQQPMGTSLRSTVGTATDAGTLLRILFSRLAKPYIGTQKAFAFNVASADASGVLVVNGKKIEKGFSVVGGMCLACEGIGSVSDIDPAQLFDASKSLADGAITVPGWKPDGWVVQSFTESGFFDPHKAIRDYTEQERHGFLHGDPVKVKVKGVNTTYEGLLARVRKSFLSKDKETLQPHIRAFVDRAVTFSACSECHGTRLSETARSAKIDGLSIADASAMQISDLAAWIRGLTDPSVTTLLTVLGQTLESFVQIGLGYLSLDRSSSTLSGGEAQRVKMVRHLGSALTDVTYVFDEPTVGLHPHDIQRMNELLLRLRDKGNTVLVVEHKPETIVIADHVVDLGPLAGTKGGEVVFEGTVEGLRASGTVTGRHLDDRASLKPSVRQRTGVVEVRGADAHNLRDVDVDIPLGVLTVVTGVAGSGKSSLIHGSVAGRDGVVTVDQSPIKGSRRSNPATYTGMLEPIRKTFAKANGVKPALFSPNSEGACPTCKGAGVIYTDLAIMAGVATTCEDCGGKRFQPSVLQYRVGGRDISEVFAMPVAEAAEFFRTGEARTPAACTVLDRLAEVGLGYLSLGQPLTTLSGGERQRLKLAGHMGGAGSVYILDEPTSGLHLADVEQLLRLLDRLVDSGKTVIVVEHHQAVMAHADWIIDLGPGAGHDGGRVVFEGTPADLVAARSTLTGEHLAQYVGA
notes: Ecm16, UvrA-like self-resistance protein of the echinomycin biosynthetic gene cluster, Streptomyces lasalocidi (formerly S. lasaliensis); codon-optimised gene in pET28a(+) between NdeI and EcoRI; cloning by NdeI into pET28a(+) would put a His tag on the N-terminus (surmised); also called WT Ecm16; echinomycin resistance conferring protein Ecm16; source: E. coli BL21 (DE3), purified (Ni-NTA, …)
- stoichiometry N [5]: 2
